Test results from publication PMC4115230, “Lipid–Protein Nanodiscs Offer New Perspectives for Structural and Functional Studies of Water-Soluble Membrane-Active Peptides” (Acta Naturae, 2014).

Experiments:
[1] = system: LPN/POPC/DOPS (4 : 1); assay: Topology of NT II on nanodisc membrane (combined NOE and PRE data); type: binding; conditions: fast exchange on the NMR scale
Method: (§1) The interaction of NT II with LPN was studied using a sample containing 45 μM ^2H,^15N-NT II, and 75 μM LPN/POPC/DOPS (4 : 1) (10 mM Tris-Ac, pH 7.0). To identify the peptide HN-groups making contacts with the nanodisc surface, the ^1H signal of choline group of the POPC lipid ((CH3)3N^+-, chemical shift is 3.2 ppm) was saturated at a frequency of 125 Hz for 0.1, 0.3, 0.5, 0.8, 1.0, 1.5, and 3.0 s using a relaxation delay of 3 s. […] To identify the peptide HN-groups making contacts with the hydrophobic region of the nanodisc membrane, the paramagnetic probe of 5-doxyl-stearic acid (5-DSA) was used. 5-DSA dissolved in a small amount of methanol was added to the sample containing NT II/LPN complexes to a final concentration of 10, 30, and 75 μM. […] The rates of the cross-correlation process between the dipole-dipole relaxation and relaxation arising from the chemical shift anisotropy of the ^15N nucleus (ηXY) were measured for the complexes of NT II with LPN/POPC/DOPS at 40 °C on an AVANCE -III-800 spectrometer, using amplitude modulated 2D ^1H,^15NTR OSY experiments. The rotational correlation time (τR) for the peptide HN-groups was calculated from the measured ηXY values.

[2] = system: muscle-type nicotinic acetylcholine receptor; conditions: blocks ligand binding sites with its central loop; ref [36]; cited from earlier work
Text: Neurotoxin II (NT II) is a cationic non-hydrophobic peptide which is stabilized by four disulfide bonds and has the so-called “three-loop” β-structure fold characteristic for snake toxins (Fig. 1). […] It blocks, with its central loop, the ligand binding sites located on the receptor extracellular domain [36]. Unlike VSTx1, NT II has no explicit membrane activity. At the same time, the ^1H,^15N-, and ^31P-NMR spectroscopy investigation of NT II in the environment of DOPC/ DOPS/cholesterol (3 : 1 : 1) ...

[3] = system: MSP (44-243 fragment of human apolipoprotein A1); assay: NMR titration binding isotherm with MSP; conditions: MSP without lipids; 1D 1H-NMR titration, 10 mM Tris-Ac, pH 7.0
Method: (§2) The recombinant 44–243 fragment of the human apolipoprotein A1 with a N-terminal sequence of six His residues was used as an MSP protein. The purified MSP protein, obtained as described in [20], was mixed at a molar ratio of 1 : 75 with lipids in the presence of a detergent, sodium cholate (2 : 1 cholate/lipids molar ratio), and the mixture was incubated at 4 °C for 3 h. When using saturated lipids (DLPC, DLPG), the reaction temperature was kept not lower than 25 °C. Spontaneous LPN assembly was initiated by detergent sorption to the Bio-Beads™ resin (Bio-Rad, USA) for 1.5 h. Purification of the nanodiscs was performed on a Ni^2+ Sepharose 6 Fast Flow resin (GE Healthcare, USA) equilibrated with buffer A (20 mM Tris-HCl, 0.5 M NaCl, 1 mM NaN3, pH 8.0). After loading the reaction mixture, the resin was washed with a fivefold volume of buffer A. LPNs were eluted with buffer A containing 100 mM imidazole. The MSP concentration was determined spectrophotometrically by absorbance at λ = 280 nm. The LPN concentration was determined by assuming that each nanodisc contained two MSP molecules.
(§3) NMR spectra were acquired at 40–45 °C on AVANCE -700 and AVANCE -III-800 spectrometers (Bruker, Germany) equipped with cryogenically cooled triple-resonance probes at the proton resonance frequencies of 700 and 800 MHz, respectively. […]

[4] = system: LPN/POPC/DOPS (4 : 1); assay: Paramagnetic relaxation enhancement from 5-DSA in 2D 1H,15N-TROSY; type: binding; conditions: 5-DSA 10, 30 and 75 μM; 45 μM 2H,15N-NT II, 75 μM LPN/POPC/DOPS (4 : 1), pH 7.0
Method: as §1

[5] = system: LPN/POPC/DOPS (4 : 1); assay: Saturation of POPC choline signal (NOE magnetization transfer) in 2D 1H,15N-TROSY; type: binding; conditions: 45 μM 2H,15N-NT II, 75 μM LPN/POPC/DOPS (4 : 1), 10 mM Tris-Ac, pH 7.0
Method: as §1

[6] = system: LPN/POPC; assay: NMR titration binding isotherm with LPN/POPC nanodiscs; conditions: POPC, 1D 1H-NMR titration, 10 mM Tris-Ac, pH 7.0
Method: as §2, §3

[7] = system: LPN/POPC/DOPG (3 : 1); assay: NMR titration binding isotherm with LPN/POPC/DOPG (3 : 1) nanodiscs; conditions: 10 mM Tris-Ac; for binding to LPNs: POPC/DOPG, 3 : 1, 1D 1H-NMR titration, pH 7.0
Method: as §2
(§4) NMR spectra were acquired at 40–45 °C on AVANCE -700 and AVANCE -III-800 spectrometers (Bruker, Germany) equipped with cryogenically cooled triple-resonance probes at the proton resonance frequencies of 700 and 800 MHz, respectively.
(§5) To measure the isotherms of the toxins binding to LPNs and MSP molecules, the VSTx1 and NT II samples ([…], 10 mM Tris-Ac, pH 7.0) were titrated with solutions of nanodiscs (70 μM) of various lipid compositions or with a MSP solution (0.7 mM). The 1D 1H-NMR spectrum was acquired at each point. A data analysis was performed assuming that the intensity of the observed NMR signals of a peptide is proportional to its equilibrium concentration in solution ([P]free). The binding curves were fitted either to the partition equilibrium equation (1) or to the Langmuir isotherm equation (2), taking into account the dilution of the initial samples upon titration:
(§6) where [LPN/lipid] is the LPN concentration (assuming that one nanodisc contains two MSP molecules) or the lipid concentration (assuming that one nanodisc contains 150 lipid molecules), [P]boundis the concentration of a peptide bound to LPN ([P]0 = [P]free+ [P]bound), Kpis the partition coefficient, n is the number of binding sites for a peptide on the nanodisc surface, and Knis the affinity constant of the peptide to the binding site on the nanodisc surface.

[8] = system: LPNs; assay: Gel filtration analysis of LPNs after peptide addition (nanodisc integrity, particle size); type: physicochemical; conditions: Superdex-200, 10 mM Tris-HCl, 0.1 M NaCl
Method: was carried out on a Superdex-200 resin using a Tricorn 5/200 column (GE Healthcare, Sweden) in buffer (10 mM Tris-HCl, 0.1 M NaCl, 1 mM EDTA, 1 mM NaN3, pH 7.4). Thyroglobulin (669 kDa, Stokes radius RH = 8.5 nm), ferritin (440 kDa, RH = 6.1 nm), catalase (232 kDa, RH = 5.22 nm), aldolase (158 kDa, RH = 4.81 nm) BSA (67 kDa, RH = 3.55 nm), and ovalbumin (43 kDa, RH = 3.05 nm) were used as calibration proteins. The flow rate through the column was 0.3 ml/min. Detection was performed at 280 nm. The particle size was determined from the elution volume vs the lgRH calibration curve. All the particle size (diameter) values provided below correspond to twice RH values. ;

[9] = system: LPN/POPC/DOPS (4 : 1); assay: NMR titration binding isotherm with LPN/POPC/DOPS (4 : 1) nanodiscs; conditions: for binding to LPNs: POPC/DOPS, 4 : 1, 1D 1H-NMR titration, pH 7.0
Method: as §2, §4, §5, §6

[10] = system: LPN/POPC/DOPS (4 : 1); assay: 15N cross-correlation relaxation rates (ηXY) of NT II in complex with LPN; type: physicochemical
Method: as §4, §1

B1: neurotoxin II (peptide)
chain: LECHNQQSSQPPTTKTCSGETNCYKKWWSDHRGTIIERGCGCPKVKPGVNLNCCRTDRCNN
modifications: not fully specified; ends and bridges not checked; also: 2H,15N-labeled
[1]
  orientations on the nanodisc surface: several (at least two) orientations
[1]; listed as NTII
  orientations on the nanodisc surface: several orientations
[2]
  inhibition of muscle-type nicotinic acetylcholine receptor: highly specific inhibitor
[3]
  interaction with MSP: absence of nonspecific toxin interactions with the MSP protein
[4]
  residues with maximum attenuation of HN-signal intensities (PRE): Thr21 residue of the toxin “head” and for residues of the third and second loops
[5]
  toxin regions with drop of cross-peak intensity on POPC choline saturation: 1) in the toxin “head”, near the putative binding site for phosphatidylserine, and 2) in the central (second) loop, at the level of Trp27, Trp28, and Ile35 residues
[6]
  binding to LPNs: lack of detectable binding
[6]; listed as NTII
  binding to LPNs: does not bind
[7]
  binding to LPNs: low affinity
[7]; listed as NTII
  binding to LPNs: comparatively low affinity
[7]; partition equilibrium (eq. 1), LPN concentration as non-aqueous phase, pH 7.0, 40–45 °C, no added salt
  Kp(LPN, MSP×2), partition coefficient: 0.32 ± 0.01 ×10^6·M^-1
[7]; partition equilibrium (eq. 1), lipid concentration as non-aqueous phase (150 lipids per nanodisc), pH 7.0, 40–45 °C, no added salt
  Kp(Lipids), partition coefficient: 2.13 ± 0.07 ×10^3·M^-1
[8]; 1 mM EDTA, pH 7.4, 280 nm
  nanodisc disruption: no disruption of nanodiscs
[8]; pH 7.4, diameter = 2 RH
  diameter of unbound toxin: ~ 2.6 nm
[9]; LPN/POPC/DOPS (4 : 1) compared with LPN/POPC/DOPG (3 : 1)
  selectivity for membranes containing different anionic lipids (phosphatidylserine and phosphatidylglycerol): lack of significant NT II selectivity
[9]; 10 mM Tris-Ac
  binding to LPNs: low affinity
[9]; 10 mM Tris-Ac, listed as NTII
  binding to LPNs: comparatively low affinity
[9]; partition equilibrium (eq. 1), LPN concentration as non-aqueous phase, 10 mM Tris-Ac, pH 7.0, 40–45 °C, no added salt
  Kp(LPN, MSP×2), partition coefficient: 0.16 ± 0.01 ×10^6·M^-1
[9]; partition equilibrium (eq. 1), lipid concentration as non-aqueous phase (150 lipids per nanodisc), 10 mM Tris-Ac, pH 7.0, 40–45 °C, no added salt
  Kp(Lipids), partition coefficient: 1.07±0.07 ×10^3·M^-1
[10]; 2H,15N-NT II in complex with LPN/POPC/DOPS, 800 MHz, 40 °C
  ηXY, cross-correlation rates of 15N nuclear relaxation, range: 2.5 to 40 Hz
[10]; calculated from mean τR
  diameter of globular particle corresponding to mean τR: ~ 5.4 nm
  mass of globular particle corresponding to mean τR: ~ 34 kDa
[10]; calculated from ηXY, NT II in complex with LPN/POPC/DOPS, 40 °C
  rotational correlation time τR, range: 2 to 31 ns
[10]; calculated from ηXY, mean, NT II in complex with LPN/POPC/DOPS, 40 °C
  rotational correlation time τR, mean: ~ 12.5 ns
[10]; mean value, 2H,15N-NT II in complex with LPN/POPC/DOPS, 800 MHz, 40 °C
  ηXY, cross-correlation rates of 15N nuclear relaxation, mean: 16.3 ± 9.2 Hz
